According to article PMC11027413:

Molecular target: RNA polymerase II (RNAPII) (human (endogenous in HepG2)) (UniProt P24928)
Experiment: co-sedimentation; HepG2 cell lysate on a 10-40% glycerol gradient in NP-40 lysis buffer (50 mM HEPES pH 7.5, 100 mM NaCl), 50,000 rpm for 11 h at 4°C; fractions detected by Western blotting

- percent of RBM22 linked with RNAPII: 40%
Substance: RBM22 (endogenous) (from UniProt Q9NW64 1-420) (natural protein)
